# Data: patent publication US20230074436A1 (DENALI THERAPEUTICS, published 2023)
# Changes are numbered by the printed parent chain.
# B1: H1_1_LC2 (antibody, V domains shown)
# VH: EVQLVESGGGLVQPGGSLRLSCAASGFTFSKAAMYWVRQAPGKGLELVSRIRTKPNNYATYHADSVKGRFTISRDNSKNTLYLQMNSLRAEDTAVYYCTADMATGDYWGQGTLVTVSS
# VL: DIQMTQSPSSLSASVGDRVTITCKASQNINKNLDWYQQKPGKAPKPLIYSTNNLQTGVPSRFSGSGSGTDFTLTISSLQPEDFATYYCYQYKSAWTFGQGTKVEIK
# B2: H2_6_LC2 (antibody, V domains shown)
# VH: B1 VH with K31N, N56K
# VL: B1 VL
# B3: H3_3_LC2 (antibody, V domains shown)
# VH: B1 VH with K31N, T99A, D101A, T104R
# VL: B1 VL
# B4: H3_5_LC2 (antibody, V domains shown)
# VH: B1 VH with K31N, M102F, T104R
# VL: B1 VL
# B5: H2_4_LC2 (antibody, V domains shown)
# VH: B1 VH with K31N, P55R
# VL: B1 VL
# B6: H1_5_LC2 (antibody, V domains shown)
# VH: B1 VH with T28K
# VL: B1 VL
# B7: H3_4_LC2 (antibody, V domains shown)
# VH: B1 VH with K31N, T99S, M102F, T104K
# VL: B1 VL
# B8: H1_4_LC2 (antibody, V domains shown)
# VH: B1 VH with S30N
# VL: B1 VL
# B9: H2_5_LC2 (antibody, V domains shown)
# VH: B1 VH with K31N, K54E
# VL: B1 VL
# B10: H2_3_LC2 (antibody, V domains shown)
# VH: B1 VH with K31N, K54E, P55R
# VL: B1 VL
# B11: H1_2_LC2 (antibody, V domains shown)
# VH: B1 VH with T28R
# VL: B1 VL
# B12: H2_1_LC2 (antibody, V domains shown)
# VH: B1 VH with K31N, Y58F
# VL: B1 VL
# B13: H3_1_LC2 (antibody, V domains shown)
# VH: B1 VH with K31N, D101N
# VL: B1 VL
# B14: H3_6_LC2 (antibody, V domains shown)
# VH: B1 VH with K31N, D101N, A103R, T104K
# VL: B1 VL
# B15: HC2_L1_1 (antibody, V domains shown)
# VH: B1 VH with K31N
# VL: B1 VL with K31N, Q55K
# B16: H3_2_LC2 (antibody, V domains shown)
# VH: B1 VH with K31N, D101N, T104K
# VL: B1 VL
# B17: H1_6_LC2 (antibody, V domains shown)
# VH: B1 VH with T28N
# VL: B1 VL
# B18: H1_3_LC2 (antibody, V domains shown)
# VH: B1 VH with K31R
# VL: B1 VL
# B19: H2_2_LC2 (antibody, V domains shown)
# VH: B1 VH with K31N, K54Q, P55R
# VL: B1 VL
# Biological target: human alpha-synuclein monomer (human, UniProt P37840 1-140)
# Test: SPR (Biacore 8K), IgG captured on anti-human Fc, aSyn monomer injected;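 further: aSyn injected as a dilution series, signal corrected against a reference cell holding an irrelevant IgG, Kd from one-to-one Langmuir kinetic fitting of kon and koff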
row,Kd,Binder
1,3.46 nM,B1
2,7.75 nM,B2
3,5.3 nM,B3
4,3.84 nM,B4
5,8.35 nM,B5
6,4.61 nM,B6
7,4.64 nM,B7
8,3.55 nM,B8
9,5.5 nM,B9
10,4.76 nM,B10
11,3.53 nM,B11
12,6.18 nM,B12
13,4.79 nM,B13
14,10.3 nM,B14
15,1.2 nM,B15
16,4.92 nM,B16
17,3.91 nM,B17
18,4.04 nM,B18
19,5.93 nM,B19
